Laboratory results from patent US20210054016, “Enzymatic RNA Capping Method” (NEW ENGLAND BIOLABS, INC., published 2021).

Target: Vaccinia capping enzyme (VCE) (Vaccinia virus, UniProt P04298;P04318 P04298:1-844,P04318:1-287)
Assay: Cap50, 37 C, 30 min, 500 nM RNA, 1 mM MgCl2; 0.94 at 45 C, 4.08 at 50 C, 30.00 at 55 C

GUAGAACUUCGUCGAGUACGCUCAA (ssRNA, 5' triphosphate) [RNA1]
EC50: 3.06 nM
